Measured values: publication PMC11074293 (2024)

Tests used:
Assay in all cases: ITC
CUL3^Δ1–13-RBX1 = CUL3^Δ1–13-RBX1 (human, UniProt Q13618 14-768; P62877 1-108)
CUL3^Δ1–24-RBX1 = CUL3^Δ1–24-RBX1 (human, UniProt Q13618 25-768; P62877 1-108)
CUL3^WT-RBX1 = CUL3^WT-RBX1 (human, UniProt Q13618 1-768; P62877 1-108)
CUL3^WT-RBX1, sequence (Q13618 whole entry, chain 1 of 2): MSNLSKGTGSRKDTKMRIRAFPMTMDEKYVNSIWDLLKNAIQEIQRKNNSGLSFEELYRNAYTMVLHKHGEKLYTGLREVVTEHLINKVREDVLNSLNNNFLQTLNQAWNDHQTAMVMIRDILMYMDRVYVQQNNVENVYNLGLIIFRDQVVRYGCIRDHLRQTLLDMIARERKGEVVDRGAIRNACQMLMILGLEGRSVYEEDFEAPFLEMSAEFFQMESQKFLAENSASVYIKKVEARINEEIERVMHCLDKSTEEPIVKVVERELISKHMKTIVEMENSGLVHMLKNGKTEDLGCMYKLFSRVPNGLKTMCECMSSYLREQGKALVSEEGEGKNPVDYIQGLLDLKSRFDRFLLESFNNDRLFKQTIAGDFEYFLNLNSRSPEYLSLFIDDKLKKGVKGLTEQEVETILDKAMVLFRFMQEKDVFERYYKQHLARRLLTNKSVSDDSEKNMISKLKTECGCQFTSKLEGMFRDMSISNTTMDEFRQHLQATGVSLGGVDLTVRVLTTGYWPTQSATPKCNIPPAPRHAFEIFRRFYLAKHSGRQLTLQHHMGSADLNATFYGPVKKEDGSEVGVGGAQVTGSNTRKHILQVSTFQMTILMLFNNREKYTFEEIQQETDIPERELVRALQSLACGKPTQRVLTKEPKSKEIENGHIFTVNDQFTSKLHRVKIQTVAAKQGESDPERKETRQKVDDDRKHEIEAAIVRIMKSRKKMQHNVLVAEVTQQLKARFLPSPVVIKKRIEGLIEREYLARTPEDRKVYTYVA
CUL3^WT-RBX1, sequence (P62877 whole entry, chain 2 of 2): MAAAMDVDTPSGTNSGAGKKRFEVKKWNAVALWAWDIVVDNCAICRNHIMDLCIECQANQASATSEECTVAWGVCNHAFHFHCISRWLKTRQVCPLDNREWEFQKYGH

CUL3^Δ1–24-RBX1, sequence (Q13618 25-768, stated change not applied, chain 1 of 2): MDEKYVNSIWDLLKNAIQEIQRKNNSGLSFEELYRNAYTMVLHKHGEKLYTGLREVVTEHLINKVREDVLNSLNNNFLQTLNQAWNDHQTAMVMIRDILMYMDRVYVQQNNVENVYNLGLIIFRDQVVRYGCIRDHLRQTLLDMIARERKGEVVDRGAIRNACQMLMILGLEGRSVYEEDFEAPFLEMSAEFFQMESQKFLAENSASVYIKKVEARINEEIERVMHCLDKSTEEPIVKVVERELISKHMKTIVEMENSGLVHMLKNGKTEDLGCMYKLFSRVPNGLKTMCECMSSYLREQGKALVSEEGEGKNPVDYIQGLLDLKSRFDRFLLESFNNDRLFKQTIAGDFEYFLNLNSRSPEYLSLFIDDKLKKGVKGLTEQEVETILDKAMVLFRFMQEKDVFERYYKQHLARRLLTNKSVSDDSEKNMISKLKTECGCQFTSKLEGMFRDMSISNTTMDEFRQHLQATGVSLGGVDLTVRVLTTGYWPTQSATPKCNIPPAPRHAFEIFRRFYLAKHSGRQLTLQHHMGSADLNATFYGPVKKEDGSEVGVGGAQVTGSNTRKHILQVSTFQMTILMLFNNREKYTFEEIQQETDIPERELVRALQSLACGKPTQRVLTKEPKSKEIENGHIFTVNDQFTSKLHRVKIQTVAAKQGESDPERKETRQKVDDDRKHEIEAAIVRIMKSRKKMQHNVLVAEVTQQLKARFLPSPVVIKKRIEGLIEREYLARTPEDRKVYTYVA
CUL3^Δ1–24-RBX1, sequence (P62877 whole entry, stated change not applied, chain 2 of 2): as the sequence (P62877 whole entry, chain 2 of 2) above
CUL3^Δ1–13-RBX1, sequence (Q13618 14-768, stated change not applied, chain 1 of 2): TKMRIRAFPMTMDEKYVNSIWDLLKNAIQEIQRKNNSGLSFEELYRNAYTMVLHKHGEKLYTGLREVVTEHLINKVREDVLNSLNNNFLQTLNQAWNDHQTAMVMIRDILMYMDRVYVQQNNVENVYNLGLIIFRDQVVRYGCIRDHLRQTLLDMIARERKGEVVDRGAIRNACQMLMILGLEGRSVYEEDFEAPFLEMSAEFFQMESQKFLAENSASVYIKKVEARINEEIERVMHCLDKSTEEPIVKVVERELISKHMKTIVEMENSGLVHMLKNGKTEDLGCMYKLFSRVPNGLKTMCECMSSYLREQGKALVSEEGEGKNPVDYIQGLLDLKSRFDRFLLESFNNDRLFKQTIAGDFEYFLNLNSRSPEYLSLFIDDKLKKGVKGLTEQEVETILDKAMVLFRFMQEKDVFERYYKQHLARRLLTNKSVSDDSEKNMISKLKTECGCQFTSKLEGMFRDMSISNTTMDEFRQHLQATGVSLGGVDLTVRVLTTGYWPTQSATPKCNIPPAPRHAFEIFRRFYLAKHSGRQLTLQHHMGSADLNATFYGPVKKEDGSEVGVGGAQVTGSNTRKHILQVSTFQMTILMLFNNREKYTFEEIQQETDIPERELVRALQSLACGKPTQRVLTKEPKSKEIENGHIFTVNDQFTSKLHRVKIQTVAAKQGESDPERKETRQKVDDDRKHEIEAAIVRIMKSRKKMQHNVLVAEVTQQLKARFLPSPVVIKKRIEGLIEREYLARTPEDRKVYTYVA
CUL3^Δ1–13-RBX1, sequence (P62877 whole entry, stated change not applied, chain 2 of 2): as the sequence (P62877 whole entry, chain 2 of 2) above

B1: KLHL22^1–178 (domain or fragment)
chain: MAEEQEFTQLCKLPAQPSHPHCVNNTYRSAQHSQALLRGLLALRDSGILFDVVLVVEGRHIEAHRILLAASCDYFRGMFAGGLKEMEQEEVLIHGVSYNAMCQILHFIYTSELELSLSNVQETLVAACQLQIPEIIHFCCDFLMSWVDEENILDVYRLAELFDLSRLTEQLDTYILKN
For B1, the Kd (CUL3^Δ1–13-RBX1) was 176 nM, the Kd (CUL3^Δ1–24-RBX1) was 483 nM and the Kd (CUL3^WT-RBX1) was 60 nM.
